From patent publication US20190022241A1 (AbbVie / Abbott, published 2019)

Experiments:
[1] = biological target: T1, SEZ6 Sushi Domain 1 (amino acids 336-395) on yeast (human, UniProt Q53EL9 355-414); test: yeast display, flow cytometry;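 note: antibody binding to individual SEZ6 domains displayed on yeast, measured by flow cytometry, antibody at 50 nM purified or hybridoma supernatant diluted 1:2, 90 min on ice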
T1 construct: yeast display

[2] = biological target: T2, SEZ6 N1 (amino acids 1-70) on yeast (human, UniProt Q53EL9 20-89); test: yeast display, flow cytometry;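 note: antibody binding to individual SEZ6 domains displayed on yeast, measured by flow cytometry, antibody at 50 nM purified or hybridoma supernatant diluted 1:2, 90 min on ice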
T2 construct: yeast display
T2 sequence: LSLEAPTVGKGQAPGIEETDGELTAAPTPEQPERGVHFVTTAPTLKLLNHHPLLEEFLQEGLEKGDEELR

human SEZ6L ECD-His = biological target: T3, human SEZ6L ECD-His (human, UniProt Q9BYH1 29-955); test: ELISA on plates coated with SEZ6L protein
T3 construct: whole entry named
T3 sequence: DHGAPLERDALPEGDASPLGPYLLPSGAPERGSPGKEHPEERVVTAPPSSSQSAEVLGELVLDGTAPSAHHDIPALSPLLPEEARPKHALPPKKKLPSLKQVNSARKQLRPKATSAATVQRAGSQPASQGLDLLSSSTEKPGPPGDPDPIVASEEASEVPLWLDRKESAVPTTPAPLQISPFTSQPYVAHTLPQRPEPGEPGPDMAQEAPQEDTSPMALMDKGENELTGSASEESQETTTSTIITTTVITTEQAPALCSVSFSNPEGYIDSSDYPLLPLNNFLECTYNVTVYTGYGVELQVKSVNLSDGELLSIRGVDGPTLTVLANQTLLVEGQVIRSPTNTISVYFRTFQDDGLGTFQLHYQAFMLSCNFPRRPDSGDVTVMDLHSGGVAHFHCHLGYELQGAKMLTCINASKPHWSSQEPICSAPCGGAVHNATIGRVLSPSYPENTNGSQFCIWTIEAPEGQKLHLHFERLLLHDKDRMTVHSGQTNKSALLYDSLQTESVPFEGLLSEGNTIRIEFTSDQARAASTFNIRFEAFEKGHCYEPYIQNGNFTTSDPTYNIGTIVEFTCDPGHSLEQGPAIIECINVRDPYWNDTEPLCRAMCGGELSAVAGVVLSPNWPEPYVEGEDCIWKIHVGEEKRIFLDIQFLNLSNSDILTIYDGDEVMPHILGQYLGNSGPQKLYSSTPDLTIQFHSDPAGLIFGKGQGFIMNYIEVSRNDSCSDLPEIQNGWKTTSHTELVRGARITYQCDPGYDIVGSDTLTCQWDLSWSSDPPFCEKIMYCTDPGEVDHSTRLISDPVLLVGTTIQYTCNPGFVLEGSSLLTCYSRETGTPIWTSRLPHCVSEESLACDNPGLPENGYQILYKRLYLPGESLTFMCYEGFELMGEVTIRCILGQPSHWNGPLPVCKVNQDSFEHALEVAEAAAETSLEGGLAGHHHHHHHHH

human SEZ6L2 ECD-His = biological target: T4, human SEZ6L2 ECD-His (human, UniProt Q6UXD5 28-843); test: ELISA on plates coated with SEZ6L2 protein
T4 construct: whole entry named
T4 sequence (Q6UXD5 other isoform, or with tags, fused parts or gaps): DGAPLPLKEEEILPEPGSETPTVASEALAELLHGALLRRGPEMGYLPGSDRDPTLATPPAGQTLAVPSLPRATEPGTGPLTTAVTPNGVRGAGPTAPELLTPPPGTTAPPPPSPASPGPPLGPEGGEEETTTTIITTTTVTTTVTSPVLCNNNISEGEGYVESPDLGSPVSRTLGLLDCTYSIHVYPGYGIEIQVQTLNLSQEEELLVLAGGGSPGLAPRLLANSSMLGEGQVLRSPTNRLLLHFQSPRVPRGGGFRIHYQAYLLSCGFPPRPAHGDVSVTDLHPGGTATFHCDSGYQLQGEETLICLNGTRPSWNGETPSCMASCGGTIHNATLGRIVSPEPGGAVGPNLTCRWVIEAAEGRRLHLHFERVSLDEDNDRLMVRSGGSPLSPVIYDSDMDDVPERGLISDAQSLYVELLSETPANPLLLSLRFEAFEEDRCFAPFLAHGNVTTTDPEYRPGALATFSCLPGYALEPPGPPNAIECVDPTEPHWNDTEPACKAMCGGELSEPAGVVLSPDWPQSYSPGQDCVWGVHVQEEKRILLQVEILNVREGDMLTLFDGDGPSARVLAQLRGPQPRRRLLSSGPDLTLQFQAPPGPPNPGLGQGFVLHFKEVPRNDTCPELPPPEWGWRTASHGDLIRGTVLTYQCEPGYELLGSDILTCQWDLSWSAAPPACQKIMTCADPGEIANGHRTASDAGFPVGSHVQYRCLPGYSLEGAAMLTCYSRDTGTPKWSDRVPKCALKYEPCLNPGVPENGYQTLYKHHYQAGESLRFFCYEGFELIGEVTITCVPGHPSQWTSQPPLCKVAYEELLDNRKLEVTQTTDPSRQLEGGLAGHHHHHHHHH

[3] = biological target: T5, mouse SEZ6 on Neuro2a cells (mouse, UniProt Q7TSK2 20-991); test: flow cytometry on Neuro2a cells expressing mouse SEZ6
T5 construct: endogenous on Neuro2a cells; also called murine SEZ6; mSEZ6

[4] = biological target: T6, rat SEZ6 on RIN-m5F cells (rat, UniProt Q7TSK2 20-991 (mouse entry)); test: flow cytometry on RIN-m5F cells expressing rat SEZ6, verified by BLI or SPR on rat SEZ6-His
T6 construct: endogenous on RIN-m5F cells; also called rSEZ6
T6 chain: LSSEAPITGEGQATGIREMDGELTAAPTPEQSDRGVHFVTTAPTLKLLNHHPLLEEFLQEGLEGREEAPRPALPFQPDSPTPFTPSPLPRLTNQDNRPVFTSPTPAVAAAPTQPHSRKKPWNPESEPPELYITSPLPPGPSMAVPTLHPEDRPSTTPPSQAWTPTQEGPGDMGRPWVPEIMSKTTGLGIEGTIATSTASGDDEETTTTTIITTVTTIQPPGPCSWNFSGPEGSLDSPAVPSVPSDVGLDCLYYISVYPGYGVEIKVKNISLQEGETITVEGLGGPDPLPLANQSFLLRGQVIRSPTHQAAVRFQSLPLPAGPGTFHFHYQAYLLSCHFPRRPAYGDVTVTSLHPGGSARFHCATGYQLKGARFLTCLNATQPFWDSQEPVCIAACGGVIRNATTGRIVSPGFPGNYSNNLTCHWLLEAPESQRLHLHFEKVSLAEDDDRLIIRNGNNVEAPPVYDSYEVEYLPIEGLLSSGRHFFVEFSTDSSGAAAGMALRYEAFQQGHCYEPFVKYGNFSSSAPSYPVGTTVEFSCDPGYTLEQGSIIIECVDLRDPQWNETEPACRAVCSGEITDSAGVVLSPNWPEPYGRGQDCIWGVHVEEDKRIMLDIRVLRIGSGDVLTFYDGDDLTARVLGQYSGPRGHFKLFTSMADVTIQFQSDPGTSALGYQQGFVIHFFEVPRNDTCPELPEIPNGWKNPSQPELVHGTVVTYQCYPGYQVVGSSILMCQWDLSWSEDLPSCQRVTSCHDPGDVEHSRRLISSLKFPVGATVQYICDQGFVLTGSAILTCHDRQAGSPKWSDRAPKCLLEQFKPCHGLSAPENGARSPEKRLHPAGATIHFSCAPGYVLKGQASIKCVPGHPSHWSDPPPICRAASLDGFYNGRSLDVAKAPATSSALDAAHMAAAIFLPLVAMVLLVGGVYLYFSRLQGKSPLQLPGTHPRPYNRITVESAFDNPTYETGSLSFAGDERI

hSEZ6-ECD-His [5] = biological target: T7, hSEZ6-ECD-His (human, UniProt Q53EL9 20-925); test: SPR, Biacore 2000 (data not shown)
T7 construct: the whole entry is named; also called recombinant SEZ6-His; human recombinant SEZ6-His

hSEZ6-ECD-His [6] = biological target: T7, hSEZ6-ECD-His; test: bio-layer interferometry (ForteBio RED) or surface plasmon resonance (Biacore 2000) on human SEZ6-His; the table does not say which; column Hu Affinity (Kd, nM)

B1: SC17.187 (antibody, V domains shown)
VH: EVHLQQSGPELVNPGSSVKISCKAAGYTFTDYNMDWVKQSHGKRLEWIGNIYPNNGGAGYNQNFKDKATLTVDKSSSTAYMELRSLTSEDSAVYYCARSITAAWFAYWGQGTLVTVSA
VL: DIKMTQSPSSMYASLGERVTLTCKASQDINSYLSWFQQKPGKSPETLIYRANRLIDGVPSRFSGSGSGQDYSLTISSLEYEDMGIYYCLQYDEFPPTFGGGTKLEIK
notes: murine mAb
- binding result [1]: binds

B2: SC17.4 (antibody, V domains shown)
VH: QIQLVQSGPELKKPGETVKISCKASGYTFTDYSMHWVKQAPGKGLKWLGWINTETGEPTYSEDFKGRFAFSLETSASTAYLQINNLKNEDTATYFCVKNKGWFAYWGQGTLVTVSA
VL: DIKMTQSPSSMYASLGERVTITCKASQDINSYLTWFQQKPGKSPKTLIYRANRLIDGVPSRFSGSGSGQDYSLTISSLDYEDMGIYYCLQYDDFPWTFGGGTKLEIK
notes: murine mAb
- binding result [2]: binds
- binding result (human SEZ6L ECD-His): no binding (tested: 1 µg/mL)
- binding result (human SEZ6L2 ECD-His): no binding (tested: 1 µg/mL)
- binding result [3]: no binding (tested: 5 µg/mL)
- binding result [4]: no binding (tested: 5 µg/mL)

B3: SC17.200 (antibody, V domains shown)
VH: QVQLQQSGPELVKPGASVKISCKASGYAFSSSWINWVKQRPGQGLEWIGRIYPGEGDTNYSGNFEGKATLTADKSSTTAYMQLSSLTSVDSAVYFCTRGLVMDYWGQGTALTVSS
VL: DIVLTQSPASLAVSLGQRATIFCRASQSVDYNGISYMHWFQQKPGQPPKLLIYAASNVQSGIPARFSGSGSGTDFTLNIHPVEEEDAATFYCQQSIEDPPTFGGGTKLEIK
notes: murine mAb
- binding result [1]: binds

B4: hSC17.28 (antibody, human IgG1, V domains shown)
VH: QVQLVQSGAEVKKPGASVKVSCKASGYTFTRSYIHWVRQAPGQGLEWMGYISSGSGGTTYNQKFKGRVTSTRDTSISTAYMELSRLRSDDTAVYYCARGGVRYFDVWGQGTTVTVSS
VL: EIVLTQSPDFQSVTPKEKVTITCRASQSIGTSIHWYQQKPDQSPKLLIKYASESISGVPSRFSGSGSGTDFTLTINSLEAEDAATYYCQQSNSWPLTFGQGTKLEIK
notes: humanized, human IgG1/kappa
- binding result (hSEZ6-ECD-His [5]): binds

B5: hSC17.16 (antibody, human IgG1, V domains shown)
VH: QVQLVQSGAEVKKPGASVKVSCKASGYTFTDYNMYWVRQAPGQGLEWMGEINPNNGGTAYNQKFRGKVTMTRDTSISTAYMELSRLRSDDTAVYYCARYDKGFDYWGQGTTVTVSS
VL: DIQMTQSPSSLSASVGDRVTITCRASANINSNLVWYQQKPGKAPKLLIYAATNLADGVPSRFSGSGSGTDFTLTISSLQPEDFATYYCQHFWGTPRTFGGGTKLEIK
notes: humanized; human IgG1 heavy and human kappa light constant regions
- binding result (hSEZ6-ECD-His [5]): binds

B6: hSC17.17 (antibody, human IgG1, V domains shown)
VH: QVQLVQSGAEVKKPGASVKVSCKASGYTFTDYNMHWVRQAPGQGLEWMGEINPNIGGTGYNQKFKGRVTMTRDTSISTAYMELSRLRSDDTAVYYCARTYSYYSYEFAYWGQGTLVTVSS
VL: EIVLTQSPATLSLSPGERATLSCSASSSVSYMHWYQQKPGQAPRLLIYDTSKLPSGIPARFSGSGSGTDFTLTISSLEPEDFAVYYCQQWSSTPPTFGQGTKLEIK
notes: humanized, human IgG1/kappa
- binding result (hSEZ6-ECD-His [5]): binds

B7: SC17.45 (antibody, V domains shown)
VH: QVQLQQPGSVLVRPGDSVKLSCKASGYTFTSYWMHWVKQSPGQGLEWIGEIHPHSGSTNYNEKFKGKATLTVDTSSSTAYVDLSSLTSEDSAVYYCVGGHYDYWGQGTTLTVSS
VL: ENVLTQSPAIMSASPGEKVTMTCSASSSVNYMYWYQQKSSTSPKLWIYDTSKLTSGVPGRFSGSGSGNSYSLTISNMEAEDVATYYCFQGSGYPLTFGSGTKLEIK
notes: murine mAb
- binding result (human SEZ6L ECD-His): no binding (tested: 1 µg/mL)
- binding result (human SEZ6L2 ECD-His): no binding (tested: 1 µg/mL)
- binding result [3]: no binding (tested: 5 µg/mL)
- binding result [4]: no binding (tested: 5 µg/mL)
- Kd (hSEZ6-ECD-His [6]): 17.4 nM

B8: SC17.49 (antibody, V domains shown)
VH: QVQLQQSGAELVRPGASVTLSCKASGYTFTDYEMHWVKQTPVHGLEWIGGIDPETGGTAYNQKFKGKATLTADKSSSTAYMELRSLTSEDSAVYFCTRWFSYWGPGTLVTVSA
VL: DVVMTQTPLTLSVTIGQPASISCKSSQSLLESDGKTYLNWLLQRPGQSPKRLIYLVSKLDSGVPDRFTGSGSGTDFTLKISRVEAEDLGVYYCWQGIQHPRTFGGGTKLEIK
notes: murine mAb
- binding result (human SEZ6L ECD-His): no binding (tested: 1 µg/mL)
- binding result (human SEZ6L2 ECD-His): no binding (tested: 1 µg/mL)
- binding result [3]: no binding (tested: 5 µg/mL)
- binding result [4]: no binding (tested: 5 µg/mL)
- Kd (hSEZ6-ECD-His [6]): 23.1 nM

B9: hSC17.34 (antibody, human IgG1, V domains shown)
VH: QVQLVQSGAEVKKPGASVKVSCKASGYTFTDYNMDWVRQAPGQRLEWIGYIYPDNGGAGYNQKFKGRVTITVDTSASTAYMELSSLRSEDTAVYYCSRSITTAWFAYWGQGTLVTVSS
VL: DIQMTQSPSSLSASVGDRVTITCKASQDINSYLSWFQQKPGKAPKSLIYRANRLVDGVPSRFSGSGSGTDYTLTISSLQPEDFATYYCLQYDEFPPTFGQGTKLEIK
notes: humanized, human IgG1/kappa
- binding result (hSEZ6-ECD-His [5]): binds

B10: SC17.87 (antibody, V domains shown)
VH: EVQLQQSGAELLKPGASVKLSCTASGLNIKDYYIHWVYQRPEQGLEWIGRIDPESDNTLYDPKFQGKASITADTSSNTAYLQLSSLTSEDTAVYYCTTNTPFAYWGQGTLVTVST
VL: DVVMTQTPLSLPVSLGDQASISCRSSQSLVHSNGNTYLHWYLQKPGQSPKLLISKVSNRFSGVPDRFSGSGSGTDFTLKISRVEAEDLGVYFCSQSTHVPPMFGGGTRLEIK
notes: murine mAb
- binding result [1]: binds

B11: SC17.97 (antibody, V domains shown)
VH: QVQLPQSGAELAKPGASVKISCKASGFTFTSYWMHWVKQRPGQGLEWIGYINPSTDYTEYNQKFKDKATLTADKSSSTAYMQLGSLTSEDSAVYYCARSSYGSSPFDYWGQGSTLTVSS
VL: DVVMTQTPLSLPVSLGDQASISCRSSQSLVHNNGNTYLHWYLQKPGQSPNLLIYKVSNRFSGVPDRFSGSGSGTDFTLKISIVEAEDLGLYFCSQSTHVPRTFGGGTKLEIK
notes: murine mAb
- binding result [1]: binds

B12: SC17.82 (antibody, V domains shown)
VH: EVQLQQSGPELVKPGASVKMSCKASGYTFTDSYMNWVKQSHGKSLEWIGRVNPNNGGASYNHKFKGKATLTVDKSLSTAYMRLNSLTSEDSAVYYCSRSGDLYYYAMDYWGQGTSVTVSS
VL: QIVLTQSPAIMSASLGEEITLTCSASSSVSYMHWYQQKSGTSPKLLIYSTSNLASGVPSRFSGSGSGTFYSLTISSVEAEDAADYYCHQWSSFTFGSGTKLEIK
notes: murine mAb
- binding result [1]: binds
